Data on one molecule can be found in patent publication US20180369373A1 (INNATE PHARMA, published 2018).

In this assay the target is T1, human NKp46 (isoform a), expressed on cells (human, UniProt O76036 22-304).
T1 construct: also called huNKp46; Raji-huNKp46 Low
The experiment in a line: IHC on FFPE cell pellets (Raji transfectants, SNK6) and human spleens, antibody at 5 and 10 pg/ml as printed.

T1 sequence (O76036 22-304 Q82K limits assumed): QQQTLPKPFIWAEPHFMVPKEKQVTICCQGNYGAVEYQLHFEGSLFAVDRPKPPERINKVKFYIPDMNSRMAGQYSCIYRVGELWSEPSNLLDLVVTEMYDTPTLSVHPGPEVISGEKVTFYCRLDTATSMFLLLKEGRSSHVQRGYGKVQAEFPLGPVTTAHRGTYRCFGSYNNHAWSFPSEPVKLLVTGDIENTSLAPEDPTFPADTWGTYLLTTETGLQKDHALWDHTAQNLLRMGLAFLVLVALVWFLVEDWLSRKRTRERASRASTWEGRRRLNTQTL

B1: 8E5B antibody (antibody, mouse IgG1, V domains shown)
VH: EIQLQQSGAELVKPGASVKLSCTASGFNIKDTYFHWVKQRPEQGLEWIGRIDPANGNTKYDPKFHDKATIIADISSNTAYLQFSSLTSEDTAVYYCAANRYGYWGQGTTLTVSS
VL: DIVMTQAAPSIPVTPGESVSISCRSSKSLLYINGNTHLFWFLQRPGQSPQLLIYRMSNLASGVPDRFSGSGSGTAFTLRISRVEAEDVGVYYCMQHLEYPFTFGSGTKLEIK
notes: Mouse monoclonal antibody; also called 8E5-B clone; monoclonal antibody 8E5B
In the case of B1, the binding result is listed as “binds”.
